This is an account of results in paper PMC4753479, “A CAPS-based binding assay provides semi-quantitative validation of protein-DNA interactions”.

In data set [1] the target is T1, rOsVAL2-B3 (rice, UniProt Q6Z3U3 144-517).
T1 sequence: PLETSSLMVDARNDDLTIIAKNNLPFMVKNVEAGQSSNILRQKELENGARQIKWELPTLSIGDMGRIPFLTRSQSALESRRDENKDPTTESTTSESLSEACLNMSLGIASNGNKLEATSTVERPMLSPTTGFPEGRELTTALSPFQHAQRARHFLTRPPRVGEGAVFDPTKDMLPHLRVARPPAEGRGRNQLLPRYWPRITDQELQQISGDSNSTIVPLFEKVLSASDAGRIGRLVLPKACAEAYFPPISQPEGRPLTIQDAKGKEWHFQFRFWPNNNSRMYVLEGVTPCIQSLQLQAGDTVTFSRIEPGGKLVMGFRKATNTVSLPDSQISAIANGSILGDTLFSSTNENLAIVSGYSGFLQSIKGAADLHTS
As to the kind of experiment: restriction protection (CBA). The settings on record: NsiI, same inhibitory effect as 5 ug rOsGD1-B3, 150 ng DNA in 15 ul, CBA: restriction enzyme buffer, 1-7 ug protein, 30 min at 37 C then 1 h digestion at 37 C, pull-down: 1 ug biotinylated DNA, 12 h ….

Data set [2] concerns the target T2, rOsGD1-B3 (rice, UniProt Q0D5G4 342-640).
T2 sequence: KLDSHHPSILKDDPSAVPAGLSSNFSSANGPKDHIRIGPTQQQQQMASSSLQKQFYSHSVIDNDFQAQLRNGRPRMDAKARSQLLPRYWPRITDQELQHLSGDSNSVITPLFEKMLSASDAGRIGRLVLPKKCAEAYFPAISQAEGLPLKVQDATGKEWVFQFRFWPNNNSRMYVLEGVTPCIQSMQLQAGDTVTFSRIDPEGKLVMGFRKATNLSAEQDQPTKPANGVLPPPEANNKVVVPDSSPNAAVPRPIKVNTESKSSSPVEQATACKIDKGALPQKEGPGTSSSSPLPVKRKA
As to the kind of experiment: restriction protection (CBA). To be noted: 150 ng DNA in 15 ul, CBA: restriction enzyme buffer, 1-7 ug protein, 30 min at 37 C then 1 h digestion at 37 C, pull-down: 1 ug biotinylated DNA, 12 h ….

Data set [3] addresses T2, rOsGD1-B3. As to the kind of experiment: pull-down; weaker than rOsVAL2-B3; CBA: restriction enzyme buffer, 150 ng DNA, 1-7 ug protein, 15 ul, 30 min at 37 C then 1 h digestion at 37 C; pull-down: 1 ug biotinylated DNA, 12 h, streptavidin-agarose, wash TBS (20 mM Tris, 150 mM NaCl), competitors 5x/10x/20x. The settings on record: protein: recombinant; tags: 6xHis (pGoldI); label: 5' biotin, both strands; blunt.

The target in data set [4] is T1, rOsVAL2-B3. Briefly: pull-down; stronger than rOsGD1-B3; CBA: restriction enzyme buffer, 150 ng DNA, 1-7 ug protein, 15 ul, 30 min at 37 C then 1 h digestion at 37 C; pull-down: 1 ug biotinylated DNA, 12 h, streptavidin-agarose, wash TBS (20 mM Tris, 150 mM NaCl), competitors 5x/10x/20x. To be noted: protein: recombinant; tags: 6xHis (pGoldI); label: 5' biotin, both strands; blunt.

For WT RY-DNA 420 bp, the binding signal with rOsVAL2-B3 [1] was found to be 3 µg protein. Further, the protein amount for inhibition of NsiI digestion with rOsGD1-B3 [2] was found to be 5 µg protein.

B1: WT RY pull-down probe (dsDNA)
DNA 1: TAATTGCATGCATATATGCACGC
DNA 2: GCGTGCATATATGCATGCAATTA
Take B1: the binding result with rOsGD1-B3 [3] and with rOsVAL2-B3 [4] was “binds” each time.
